Experimental findings from US20030003482A1 (published 2003) are described below.

The test addresses T1, Human MRP14 (Homo sapiens, UniProt P06702 1-114, limits assumed).
T1 sequence: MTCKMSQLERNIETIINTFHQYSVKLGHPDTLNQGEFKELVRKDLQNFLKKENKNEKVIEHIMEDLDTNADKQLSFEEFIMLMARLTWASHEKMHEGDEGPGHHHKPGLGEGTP
The experiment in a line: statement within the sandwich ELISA example (Example 5). Here is the method:
In order to determine the amount of MRP8/MRP14 polypeptide in various wound fluids, wound fluid samples from patients suffering from chronic diabetic wound were collected, venous ulcers as well as wound fluids from wounds of healthy persons. Wound fluids were isolated as described in Example 2 by means of drainage. For the determination of MRP8/MRP14 content, Maxi-Sorb Immunoplates (96-well, Nunc, Wiesbaden, Germany) were coated with polyclonal rabbit antisera against MRP14 by incubating each well overnight at 4° C. with 50 μl of coating solution (anti-MRP14 antibody, 2 μg/ml, in 0.1 M NaHCO3, pH 9.5). […] After removal of the blocking reagent, 50 μl of diluted wound fluid samples (buffer A: PBS containing 0.1% Tween 20) were added and allowed to react with the immobilized capture antibody for 1 h at 37° C. and then washed (3×) with buffer A. Bound antigen was detected by incubation (1 h, 37° C.) of each well with 50 μl of a biotinylated monoclonal antibody against MRP14 (clone S36.48, Dianova, 125 ng/ml antibody in buffer A). […] MRP8 and MRP14 spontaneously form noncovalently associated complexes to a quantitative extent which are detected by the ELISA system. […] The total polypeptide content per probe was determined using the BCA assay.

B1: Human MRP8 (other)
chain: MLTELEKALNSIIDVYHKYSLIKGNFHAVYRDDLKKLLETECPQYIRKKGADVWFKELDINTDGAVNFQEFLILVIKMGVAAHKKSHEESHKE
notes: Natural protein in human wound fluid and wound biopsy tissue (Western blot); also called calgranulin A
Turning to B1, the binding result is recorded as “binds”.
